Test results reported in PMC8249405, “Xanthomonas effector XopR hijacks host actin cytoskeleton via complex coacervation” (Nature Communications, 2021).

B1: MBP-HH-msfGFP (domain or fragment)
chain: SLRRLDLQLEEITRQCSDIQKQLFMEDRE
notes: XopR of Xcc, HH motif; also called chimeric protein HH; source: E. coli BL21 (DE3) Rosetta, purified; not shown: MBP, N-terminal, kept; msfGFP, C-terminal, kept
B2: WH2 peptide (peptide)
peptide: QCSDIQKQLFMEDREATPQEQHLLKTRAA
notes: XopR of Xcc, WH2-like motif without the extended helix; source: synthetic peptide (GL Biochem)
B3: Xcc XopR-FL (aa 1-411) (natural protein)
chain: MRLSQLFNSRHRVAPEPHGANPNKTTPLIPGASPQHPLSQAPKSTTSQGASKSHRGMLASARKSLASLRKQLPLTCMGSSPTLETVESPPAHTAAVTPGRTQQQHGTQARVDQRWQPPVPNATDHERVQRPQPQPQQTPPTRQSMSVPPKPARAQQLHGPQRPVDPRMQPPIPERMRRDEGQPPQHDKPASPPVPITPAQSSLPSPRPQPGRQPSLRRLDLQLEEITRQCSDIQKQLFMEDREATPQEQHLLKTRAALIAWRNEVRDSQLEALLVALAPMEDIRAPRTTSSGLAMVQMDAMQHNRREVLKARRKSVDRAALARNYARAQRRLESLKQGDAPKEQIRRLQRMMQGYQNMLALEQIVRSTDDQLERLGAPRLMSGIPTTAEQRRQSFEKERDAHQEAIDNGYY
notes: type III effector XopR of Xanthomonas campestris pv. campestris (Xcc) strain 8004, aa 1-411; The methods list a C-terminal His6-Flag form and a C-terminal mRuby2-His6-Flag form; also called full-length XopR; XopR full-length; source: E. coli BL21 (DE3) Rosetta, purified (HisTrap, gel filtration)
B4: EHWH2 peptide (peptide)
peptide: SLRRLDLQLEEITRQCSDIQKQLFMEDREATPQEQHLLKTRAA
notes: XopR of Xcc, extended helix plus WH2-like motif; also called CCWH2; source: synthetic peptide (GL Biochem)
B5: MBP-EHWH2-msfGFP (domain or fragment)
chain: B4 peptide
notes: XopR of Xcc, EHWH2 stretch; also called chimeric protein EHWH2; source: E. coli BL21 (DE3) Rosetta, purified; not shown: MBP, N-terminal, kept; msfGFP, C-terminal, kept
B6: HH peptide (peptide)
peptide: SLRRLDLQLEEITRQCSDIQKQLFMEDRE
notes: XopR of Xcc, HH motif (extended helix and WH2 alpha-helix); also called CC; CC peptide; source: synthetic peptide (GL Biochem)

Key:
[1] = target: F-actin (filaments assembled from rabbit skeleton muscle actin) (rabbit, UniProt P68135 1-377); assay: co-sedimentation; high speed (100,000 x g, 20 min, 25 °C); 2 uM F-actin with a range of concentrations of the MBP-msfGFP fusion; SDS-PAGE; Hill fit; conditions: both partners purified
[2] = target: G-actin (monomeric Ca2+-ATP-actin from rabbit skeleton muscle) (rabbit, UniProt P68135 1-377); assay: MST; peptides serially diluted and titrated into 10 uM LatB-actin; 50 mM Tris pH 7.4, 150 mM NaCl, 0.05% Tween 20; 22 °C; called label-free in the results; conditions: both partners purified
[3] = target: the molecule itself; assay: SEC; Superdex 200 Increase 10/300, 150 mM NaCl, against protein standards

Row | Binder | Kd [1] [µM] | Kd [2] [µM] | further results
1 | B1 | 1.27 ± 0.05 |  | 
2 | B2 |  | > 100 | 
3 | B3 |  |  | stoichiometry N [3]: 3
4 | B4 |  | 16.5 ± 4.53 | 
5 | B5 | 1 ± 0.06 |  | 
6 | B6 |  | 73.9 ± 63 | 
